Test results as given in patent US8722052B2, “Vaccinia virus protein A46 peptide and use thereof” (priority 2008, dated 2014).

Target: T1, TLR4 (Mus musculus, UniProt Q9QUK6)
T1 sequence (Q9QUK6 26-835): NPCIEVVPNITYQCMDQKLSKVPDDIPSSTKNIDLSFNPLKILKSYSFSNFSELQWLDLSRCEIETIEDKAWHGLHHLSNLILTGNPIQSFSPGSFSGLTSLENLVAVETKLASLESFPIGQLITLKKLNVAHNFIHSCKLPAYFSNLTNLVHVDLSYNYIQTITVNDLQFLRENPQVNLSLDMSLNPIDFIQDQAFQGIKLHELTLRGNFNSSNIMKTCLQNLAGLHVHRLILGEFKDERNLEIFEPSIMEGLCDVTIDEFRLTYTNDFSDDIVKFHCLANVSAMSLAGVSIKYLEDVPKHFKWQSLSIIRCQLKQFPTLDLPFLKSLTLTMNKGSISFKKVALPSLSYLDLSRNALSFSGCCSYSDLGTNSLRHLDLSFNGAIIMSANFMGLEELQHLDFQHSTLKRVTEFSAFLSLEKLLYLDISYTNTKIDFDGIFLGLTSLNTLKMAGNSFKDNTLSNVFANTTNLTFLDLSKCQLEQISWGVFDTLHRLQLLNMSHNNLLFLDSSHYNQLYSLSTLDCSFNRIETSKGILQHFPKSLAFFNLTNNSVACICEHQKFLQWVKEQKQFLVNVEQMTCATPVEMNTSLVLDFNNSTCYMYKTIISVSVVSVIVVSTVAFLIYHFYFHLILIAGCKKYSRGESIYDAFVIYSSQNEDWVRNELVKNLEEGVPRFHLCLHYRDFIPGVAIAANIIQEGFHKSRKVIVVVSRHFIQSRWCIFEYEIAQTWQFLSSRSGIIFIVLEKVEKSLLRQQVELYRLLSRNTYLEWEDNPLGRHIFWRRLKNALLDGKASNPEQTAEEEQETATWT
T1 sequence (Q9JHF9 19-160 partner): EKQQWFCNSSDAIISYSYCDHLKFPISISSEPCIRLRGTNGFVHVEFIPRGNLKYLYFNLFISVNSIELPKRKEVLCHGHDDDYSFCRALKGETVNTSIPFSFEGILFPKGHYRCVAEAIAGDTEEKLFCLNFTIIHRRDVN
Assay: LPS-induced TNFα in RAW264.7 cells, ELISA
Type: cell-based, murine
Design: endogenous in cells; host or cells: RAW264.7; immortalised murine bone-marrow-derived macrophages
Description: FIGS. 5A and B are bar charts showing the dose-dependent inhibitory effect of A464R on LPS-induced TNFα in murine RAW264.7 cells. A464 (SEQ ID NO. 20) was added to the cells at a concentration of 5, 20 or 50 μM 1 hour before stimulating with 100 ng/ml LPS. Supernatant was collected 24 hours after stimulation and assayed for TNFα by ELISA (A) and cells were assayed for viability by the MTT assay (B.). No peptides were added to the control wells (black bars). Data is representative of at least three experiments each performed in triplicate and is expressed as mean±s.d;
FIGS. 6A and B are bar charts showing the effect of peptides derived from A46 on LPS-induced TNFα in murine RAW264.7 cells. A46 peptides were added to the cells at a concentration of 1 or 5 μM 1 hour before stimulating with 10 ng/ml LPS. Supernatants were collected 6 hours after stimulation and assayed for TNFα by ELISA. No peptides were added into the control wells (black bars). (A) peptides A461-A467 (SEQ ID NO. 17 to 23). (B) peptides A468-A4614 (SEQ ID NO. 24 to 30) (excluding A4610 SEQ ID NO. 26 and A4612 SEQ ID NO. 28). Data is representative of at least two experiments each performed in triplicate and is expressed as mean±s.d;
FIGS. 22 A and B are bar charts showing the effect of short A467 and A464 peptides, with 9R on either N- or C-terminus, on LPS- induced TNFα production in murine RAW264.7 cells. Cells were seeded in 96 well plates (1.5×10^5 cells/ml) 24 hours before treatment. Short A467 and short A464 peptides with the 9R delivery sequence on either the C-terminus (sA464C9R) (SEQ ID NO. 56) (A) or the N-terminus (sA464N9R) (SEQ ID NO. 57) (B) were added to the cells at a concentration of 5 or 25 μM 1 hour before stimulating with 10 ng/ml LPS. Normal full length A467 (SEQ ID NO. 23) and A464 (SEQ ID NO. 20) peptides were added at a concentration of 5 μM as positive controls. Supernatants were collected 6 hours after stimulation with the agonist and assayed for TNFα, by ELISA. No peptides were added to the control wells (black bars). Data is representative of at least three experiments each performed in triplicate and is expressed as mean±s.d;
Cytokine and chemokine production from cells or mouse serum was measured by ELISA using Duoset kits from R&D systems, according to the manufacturer's instructions.

## KYSFKLILAEYRRRRRRRRR [Peptide A464]
Peptide 1 or 5 μM 1 h before 10 ng/ml LPS, 6 h
  inhibition of LPS-induced mTNFα: inhibited LPS-induced mTNFα at 1 and 5 μM
Peptide 5, 20 or 50 μM 1 h before 100 ng/ml LPS, 24 h
  inhibition of LPS-induced murine TNFα production: potently inhibited LPS-induced murine TNFα production in RAW264.7 cells at just 5 μM
